Assay results published in patent publication US20180072798A1.

Experiments:
[1] = molecular target: DENV-1 virus particle, strain 05K2916 (167), live (dengue virus serotype 1 (DENV-1), strain 05K2916); assay: cell-based or functional assay
[2] = molecular target: DENV-2 virus particle, strain TSV01, live (dengue virus serotype 2 (DENV-2), strain TSV01); assay: cell-based or functional assay
[3] = molecular target: DENV-3 virus, strain VN32/96 (dengue virus serotype 3 (DENV-3), strain VN32/96); assay: cell-based or functional assay
[4] = molecular target: DENV-4 virus particle, strain 2641Y08, live (dengue virus serotype 4 (DENV-4), strain 2641Y08); assay: cell-based or functional assay
[5] = molecular target: DENV-2 (TSV01) E protein mutant E49A, soluble part, V5 tag, from S2 cells (dengue virus serotype 2 (DENV-2), strain TSV01); assay: sandwich ELISA, V5-tagged soluble E captured by anti-V5
[6] = molecular target: DENV-2 (TSV01) E protein mutant F108A, soluble part, V5 tag, from S2 cells (dengue virus serotype 2 (DENV-2), strain TSV01); assay: as above
[7] = molecular target: DENV-2 (TSV01) E protein mutant G100A, soluble part, V5 tag, from S2 cells (dengue virus serotype 2 (DENV-2), strain TSV01); assay: as above
[8] = molecular target: DENV-2 (TSV01) E protein mutant K295A, soluble part, V5 tag, from S2 cells (dengue virus serotype 2 (DENV-2), strain TSV01); assay: as above
[9] = molecular target: DENV-2 (TSV01) E protein mutant K64A, soluble part, V5 tag, from S2 cells (dengue virus serotype 2 (DENV-2), strain TSV01); assay: as above
[10] = molecular target: DENV-2 (TSV01) E protein mutant N134A, soluble part, V5 tag, from S2 cells (dengue virus serotype 2 (DENV-2), strain TSV01); assay: as above
[11] = molecular target: DENV-2 (TSV01) E protein mutant N153A, soluble part, V5 tag, from S2 cells (dengue virus serotype 2 (DENV-2), strain TSV01); assay: as above
[12] = molecular target: DENV-2 (TSV01) E protein mutant N203A, soluble part, V5 tag, from S2 cells (dengue virus serotype 2 (DENV-2), strain TSV01); assay: as above
[13] = molecular target: DENV-2 (TSV01) E protein mutant Q167A, soluble part, V5 tag, from S2 cells (dengue virus serotype 2 (DENV-2), strain TSV01); assay: as above
[14] = molecular target: DENV-2 (TSV01) E protein mutant Q77A, soluble part, V5 tag, from S2 cells (dengue virus serotype 2 (DENV-2), strain TSV01); assay: as above
[15] = molecular target: DENV-2 (TSV01) E protein mutant R323A, soluble part, V5 tag, from S2 cells (dengue virus serotype 2 (DENV-2), strain TSV01); assay: as above
[16] = molecular target: DENV-2 (TSV01) E protein mutant S169A, soluble part, V5 tag, from S2 cells (dengue virus serotype 2 (DENV-2), strain TSV01); assay: as above
[17] = molecular target: DENV-2 (TSV01) E protein mutant S274A, soluble part, V5 tag, from S2 cells (dengue virus serotype 2 (DENV-2), strain TSV01); assay: as above
[18] = molecular target: DENV-2 (TSV01) E protein mutant T155A, soluble part, V5 tag, from S2 cells (dengue virus serotype 2 (DENV-2), strain TSV01); assay: as above
[19] = molecular target: DENV-2 (TSV01) E protein mutant W101A, soluble part, V5 tag, from S2 cells (dengue virus serotype 2 (DENV-2), strain TSV01); assay: as above
[20] = molecular target: DENV-2 (TSV01) wildtype E protein, full length, expressed with prM in HEK293 cells (dengue virus serotype 2 (DENV-2), strain TSV01); assay: flow cytometry on transfected HEK293 cells; the reference itself
[21] = molecular target: DENV-2 (TSV01) wildtype E protein, soluble part, V5 tag, from S2 cells (dengue virus serotype 2 (DENV-2), strain TSV01); assay: sandwich ELISA, V5-tagged soluble E captured by anti-V5; the reference itself
[22] = molecular target: DENV-2 (TSV01) E protein mutant E161A, full length, expressed with prM in HEK293 cells (dengue virus serotype 2 (DENV-2), strain TSV01); assay: flow cytometry on transfected HEK293 cells, normalised to 3H5 staining and to wt
[23] = molecular target: DENV-2 (TSV01) E protein mutant E202A, full length, expressed with prM in HEK293 cells (dengue virus serotype 2 (DENV-2), strain TSV01); assay: as above
[24] = molecular target: DENV-2 (TSV01) E protein mutant E49A, full length, expressed with prM in HEK293 cells (dengue virus serotype 2 (DENV-2), strain TSV01); assay: as above
[25] = molecular target: DENV-2 (TSV01) E protein mutant F392A, full length, expressed with prM in HEK293 cells (dengue virus serotype 2 (DENV-2), strain TSV01); assay: as above
[26] = molecular target: DENV-2 (TSV01) E protein mutant I162A, full length, expressed with prM in HEK293 cells (dengue virus serotype 2 (DENV-2), strain TSV01); assay: as above
[27] = molecular target: DENV-2 (TSV01) E protein mutant K122A, full length, expressed with prM in HEK293 cells (dengue virus serotype 2 (DENV-2), strain TSV01); assay: as above
[28] = molecular target: DENV-2 (TSV01) E protein mutant K295A, full length, expressed with prM in HEK293 cells (dengue virus serotype 2 (DENV-2), strain TSV01); assay: as above
[29] = molecular target: DENV-2 (TSV01) E protein mutant K310A, full length, expressed with prM in HEK293 cells (dengue virus serotype 2 (DENV-2), strain TSV01); assay: as above
[30] = molecular target: DENV-2 (TSV01) E protein mutant N134A, full length, expressed with prM in HEK293 cells (dengue virus serotype 2 (DENV-2), strain TSV01); assay: as above
[31] = molecular target: DENV-2 (TSV01) E protein mutant N153A, full length, expressed with prM in HEK293 cells (dengue virus serotype 2 (DENV-2), strain TSV01); assay: as above
[32] = molecular target: DENV-2 (TSV01) E protein mutant N203A, full length, expressed with prM in HEK293 cells (dengue virus serotype 2 (DENV-2), strain TSV01); assay: as above
[33] = molecular target: DENV-2 (TSV01) E protein mutant Q200A, full length, expressed with prM in HEK293 cells (dengue virus serotype 2 (DENV-2), strain TSV01); assay: as above
[34] = molecular target: DENV-2 (TSV01) E protein mutant Q77A, full length, expressed with prM in HEK293 cells (dengue virus serotype 2 (DENV-2), strain TSV01); assay: as above
[35] = molecular target: DENV-2 (TSV01) E protein mutant R323A, full length, expressed with prM in HEK293 cells (dengue virus serotype 2 (DENV-2), strain TSV01); assay: as above
[36] = molecular target: DENV-2 (TSV01) E protein mutant S169A, full length, expressed with prM in HEK293 cells (dengue virus serotype 2 (DENV-2), strain TSV01); assay: as above
[37] = molecular target: DENV-2 (TSV01) E protein mutant T155A, full length, expressed with prM in HEK293 cells (dengue virus serotype 2 (DENV-2), strain TSV01); assay: as above
[38] = molecular target: DENV-2 (TSV01) E protein mutant W101A, full length, expressed with prM in HEK293 cells (dengue virus serotype 2 (DENV-2), strain TSV01); assay: as above
[39] = molecular target: DENV-2 (TSV01) E protein mutant W391A, full length, expressed with prM in HEK293 cells (dengue virus serotype 2 (DENV-2), strain TSV01); assay: as above

B1: 3C H5L1 antibody (antibody, V domains shown)
VH: EVQLVQSGPDVEKPGASVKVSCKASGYTFTSNYIHWVRQAPGQGLEWMGVINPRGGSTASAQKFQGRITMTRDTSTSTVYMELSSLRSDDTAVYYCARGGRALFYDSYTTPRDGGSWWFDPWGQGSLVTVSS
VL: DIQLTQSPSSLSASVGDRVTFTCQASQDIRKYLNWYQQKPGKAPKLLIYDASNLKTGVPSRFSGSGSGTDFTFTISSLQPEDVATYYCQQFDDLPITFGQGTRLQIK
[1]
  EC50, plaque reduction neutralization test (PRNT) on BHK-21 cells: 0.6 µg/mL
[2]
  EC50, plaque reduction neutralization test (PRNT) on BHK-21 cells: 0.001 µg/mL
[3]
  EC50, plaque reduction neutralization test (PRNT) on BHK-21 cells: 0.5 µg/mL
[4]
  EC50, plaque reduction neutralization test (PRNT) on BHK-21 cells: 0.07 µg/mL
[5]
  relative binding (normalised to wt E protein) (ratio to wt E protein): 0.695
[6]
  relative binding (normalised to wt E protein) (ratio to wt E protein): 0.806
[7]
  relative binding (normalised to wt E protein) (ratio to wt E protein): 0.186
[8]
  relative binding (normalised to wt E protein) (ratio to wt E protein): 0.189
[9]
  relative binding (normalised to wt E protein) (ratio to wt E protein): 0.444
[10]
  relative binding (normalised to wt E protein) (ratio to wt E protein): 0.221
[11]
  relative binding (normalised to wt E protein) (ratio to wt E protein): 0.806
[12]
  relative binding (normalised to wt E protein) (ratio to wt E protein): 0.72
[13]
  relative binding (normalised to wt E protein) (ratio to wt E protein): 0.774
[14]
  relative binding (normalised to wt E protein) (ratio to wt E protein): 0.747
[15]
  relative binding (normalised to wt E protein) (ratio to wt E protein): 0.334
[16]
  relative binding (normalised to wt E protein) (ratio to wt E protein): 0.784
[17]
  relative binding (normalised to wt E protein) (ratio to wt E protein): 0.0859
[18]
  relative binding (normalised to wt E protein) (ratio to wt E protein): 0.839
[19]
  relative binding (normalised to wt E protein) (ratio to wt E protein): 0.242
[20]
  relative binding (normalised to wt E protein) (ratio to wt E protein): 1
[21]
  relative binding (normalised to wt E protein) (ratio to wt E protein): 1
[22]
  relative binding (normalised to wt E protein) (ratio to wt E protein): 1.07
[23]
  relative binding (normalised to wt E protein) (ratio to wt E protein): 2.02
[24]
  relative binding (normalised to wt E protein) (ratio to wt E protein): 0.996
[25]
  relative binding (normalised to wt E protein) (ratio to wt E protein): 0.133
[26]
  relative binding (normalised to wt E protein) (ratio to wt E protein): 0.242
[27]
  relative binding (normalised to wt E protein) (ratio to wt E protein): 0.27
[28]
  relative binding (normalised to wt E protein) (ratio to wt E protein): 1.04
[29]
  relative binding (normalised to wt E protein) (ratio to wt E protein): 0.15
[30]
  relative binding (normalised to wt E protein) (ratio to wt E protein): 1.08
[31]
  relative binding (normalised to wt E protein) (ratio to wt E protein): 0.535
[32]
  relative binding (normalised to wt E protein) (ratio to wt E protein): 0.719
[33]
  relative binding (normalised to wt E protein) (ratio to wt E protein): 0.394
[34]
  relative binding (normalised to wt E protein) (ratio to wt E protein): 0.38
[35]
  relative binding (normalised to wt E protein) (ratio to wt E protein): 0.416
[36]
  relative binding (normalised to wt E protein) (ratio to wt E protein): 0.963
[37]
  relative binding (normalised to wt E protein) (ratio to wt E protein): 0.621
[38]
  relative binding (normalised to wt E protein) (ratio to wt E protein): 0.165
[39]
  relative binding (normalised to wt E protein) (ratio to wt E protein): 0.144
